Where “and” joins values, the source holds several entries; their conditions need not be identical. Equal values may be shown once.
Experiments:
[1] = substrate: NC(=O)c1ccc[n+]([C@@H]2O[C@H](COP(=O)([O-])OP(=O)(O)OC[C@H]3O[C@@H](n4cnc5c(N)ncnc54)[C@H](O)[C@@H]3O)[C@@H](O)[C@H]2O)c1; experiment: Enzyme kinetics with variable NAD^+ (in vitro deacylation, Michaelis-Menten), SIRT7 in presence of RNA; format: biochemical, mouse; details: for Km: in the presence of RNA; for kcat: NAD^+-dependent deacylation
Protocol: (§1) In the case of the SIRT1 enzymatic reaction, 8 µM peptide was incubated in 50 µL reaction buffer containing 10 mM NaCl, 10 mM KCl, 20 mM Tris-HCl pH 8.0, 1.0 mM NAD^+, and 1 mM DTT, with or without 1 µg recombinant SIRT1. The reaction mixtures were incubated for 24 h for SIRT7 or 2 h for SIRT1 at 37 °C.
(§2) For enzyme kinetics with variable concentrations of the NAD^+ substrate, an in vitro deacylation assay was performed using wild-type SIRT7 and SIRT1 with serial dilutions of the NAD^+ substrate. The reaction was incubated at 37 °C for the appropriate time, which was within the linear part of the progression curve (60 min for SIRT7 and 10 min for SIRT1). […] Each enzymatic assay was conducted in triplicate, and the resulting data were plotted and fitted to the Michaelis–Menten equation using GraphPad Prism version 8.0.2 (GraphPad Software, Boston, MA, USA).
(§3) The general conditions for electrospray ionization-MS were as follows: nebulizer gas, N2, delivered at 50 psi; nebulizer gas temperature, 250 °C; capillary voltage, 3500 V; and collision gas, G1 grade N2 (Taiyo Nippon Sanso Corporation, Tokyo, Japan).

[2] = substrate: NC(=O)c1ccc[n+]([C@@H]2O[C@H](COP(=O)([O-])OP(=O)(O)OC[C@H]3O[C@@H](n4cnc5c(N)ncnc54)[C@H](O)[C@@H]3O)[C@@H](O)[C@H]2O)c1; experiment: Enzyme kinetics with variable NAD^+ (in vitro deacetylation, Michaelis-Menten), SIRT1; format: biochemical, mouse; details: other: SIRT1 with the H3K9Ac peptide
Protocol: as §1, §2, §3

B1: SIRT7 (Mus musculus) (protein)
chain: MAAGGGLSRSERKAAERVRRLREEQQRERLRQVSRILRKAAAERSAEEGRLLAESEDLVTELQGRSRRREGLKRRQEEVCDDPEELRRKVRELAGAVRSARHLVVYTGAGISTAASIPDYRGPNGVWTLLQKGRPVSAADLSEAEPTLTHMSITRLHEQKLVQHVVSQNCDGLHLRSGLPRTAISELHGNMYIEVCTSCIPNREYVRVFDVTERTALHRHLTGRTCHKCGTQLRDTIVHFGERGTLGQPLNWEAATEAASKADTILCLGSSLKVLKKYPRLWCMTKPPSRRPKLYIVNLQWTPKDDWAALKLHGKCDDVMQLLMNELGLEIPVYNRWQDPIFSLATPLRAGEEGSHSRKSLCRSREEAPPGDQSDPLASAPPILGGWFGRGCAKRAKRKKVA
notes: HaloTag (N, cleaved yes); made in house; host or cells: E. coli K12 KRX
kcat/Km ([1]; other: acetyl H3K18 peptide): 0.844 ± 0.024 M⁻¹ s⁻¹
Km ([1]; other: acetyl H3K18 peptide (H3K18Ac)): 445.3 ± 28.5 µM
kcat ([1]; other: acetyl H3K18 peptide): 0.000376 ± 1.52e-05 s⁻¹
kcat/Km ([1]; other: butyryl H3K18 peptide): 2.10 ± 0.061 M⁻¹ s⁻¹
kcat ([1]; other: butyryl H3K18 peptide): 0.00143 ± 0.00015 s⁻¹
Km ([1]; other: butyryl H3K18 peptide): 678.6 ± 83.6 µM
kcat/Km ([1]; other: myristoyl H3K18 peptide): 11.9 ± 0.695 M⁻¹ s⁻¹
kcat ([1]; other: myristoyl H3K18 peptide): 0.00183 ± 8.23e-05 s⁻¹
Km ([1]; other: myristoyl H3K18 peptide): 153 µM and 153.2 ± 8.8 µM
kcat/Km ([1]; other: octanoyl H3K18 peptide): 3.74 ± 0.124 M⁻¹ s⁻¹
kcat ([1]; other: octanoyl H3K18 peptide): 0.00176 ± 6.48e-05 s⁻¹
Km ([1]; other: octanoyl H3K18 peptide): 470.0 ± 16.7 µM
kcat/Km ([1]; other: palmitoyl H3K18 peptide): 2.35 ± 0.224 M⁻¹ s⁻¹
kcat ([1]; other: palmitoyl H3K18 peptide): 0.00149 ± 0.000101 s⁻¹
Km ([1]; other: palmitoyl H3K18 peptide): 633 µM and 633.5 ± 37.5 µM
kcat/Km ([1]; other: propionyl H3K18 peptide): 10.9 ± 0.633 M⁻¹ s⁻¹
kcat ([1]; other: propionyl H3K18 peptide): 0.00202 ± 4.14e-05 s⁻¹
Km ([1]; other: propionyl H3K18 peptide): 185.1 ± 7.6 µM
kcat/Km ([1]; other: succinyl H3K18 peptide): 2.01 ± 0.390 M⁻¹ s⁻¹
kcat ([1]; other: succinyl H3K18 peptide): 0.000224 ± 1.68e-05 s⁻¹
Km ([1]; other: succinyl H3K18 peptide): 114 µM and 114.9 ± 30.4 µM

B2: SIRT1 (Mus musculus) (protein)
chain: MADEVALALQAAGSPSAAAAMEAASQPADEPLRKRPRRDGPGLGRSPGEPSAAVAPAAAGCEAASAAAPAALWREAAGAAASAEREAPATAVAGDGDNGSGLRREPRAADDFDDDEGEEEDEAAAAAAAAAIGYRDNLLLTDGLLTNGFHSCESDDDDRTSHASSSDWTPRPRIGPYTFVQQHLMIGTDPRTILKDLLPETIPPPELDDMTLWQIVINILSEPPKRKKRKDINTIEDAVKLLQECKKIIVLTGAGVSVSCGIPDFRSRDGIYARLAVDFPDLPDPQAMFDIEYFRKDPRPFFKFAKEIYPGQFQPSLCHKFIALSDKEGKLLRNYTQNIDTLEQVAGIQRILQCHGSFATASCLICKYKVDCEAVRGDIFNQVVPRCPRCPADEPLAIMKPEIVFFGENLPEQFHRAMKYDKDEVDLLIVIGSSLKVRPVALIPSSIPHEVPQILINREPLPHLHFDVELLGDCDVIINELCHRLGGEYAKLCCNPVKLSEITEKPPRPQKELVHLSELPPTPLHISEDSSSPERTVPQDSSVIATLVDQATNNNVNDLEVSESSCVEEKPQEVQTSRNVENINVENPDFKAVGSSTADKNERTSVAETVRKCWPNRLAKEQISKRLEGNQYLFVPPNRYIFHGAEVYSDSEDDVLSSSSCGSNSDSGTCQSPSLEEPLEDESEIEEFYNGLEDDTERPECAGGSGFGADGGDQEVVNEAIATRQELTDVNYPSDKS
notes: as for B1
Km [2]: 14 µM

From publication PMC11988671, “SIRT7 Is a Lysine Deacylase with a Preference for Depropionylation and Demyristoylation” (International Journal of Molecular Sciences, 2025)
